Reference: paper PMC3744345

Assays:
amyloid-β (Homo sapiens) = amyloid-β (Homo sapiens) (UniProt P05067); details: cited from earlier work
[1] = molecular target: recombinant extracellular domain of sortilin (UniProt Q99523); experiment: SPR
Sequence of recombinant extracellular domain of sortilin (Q99523 78-755): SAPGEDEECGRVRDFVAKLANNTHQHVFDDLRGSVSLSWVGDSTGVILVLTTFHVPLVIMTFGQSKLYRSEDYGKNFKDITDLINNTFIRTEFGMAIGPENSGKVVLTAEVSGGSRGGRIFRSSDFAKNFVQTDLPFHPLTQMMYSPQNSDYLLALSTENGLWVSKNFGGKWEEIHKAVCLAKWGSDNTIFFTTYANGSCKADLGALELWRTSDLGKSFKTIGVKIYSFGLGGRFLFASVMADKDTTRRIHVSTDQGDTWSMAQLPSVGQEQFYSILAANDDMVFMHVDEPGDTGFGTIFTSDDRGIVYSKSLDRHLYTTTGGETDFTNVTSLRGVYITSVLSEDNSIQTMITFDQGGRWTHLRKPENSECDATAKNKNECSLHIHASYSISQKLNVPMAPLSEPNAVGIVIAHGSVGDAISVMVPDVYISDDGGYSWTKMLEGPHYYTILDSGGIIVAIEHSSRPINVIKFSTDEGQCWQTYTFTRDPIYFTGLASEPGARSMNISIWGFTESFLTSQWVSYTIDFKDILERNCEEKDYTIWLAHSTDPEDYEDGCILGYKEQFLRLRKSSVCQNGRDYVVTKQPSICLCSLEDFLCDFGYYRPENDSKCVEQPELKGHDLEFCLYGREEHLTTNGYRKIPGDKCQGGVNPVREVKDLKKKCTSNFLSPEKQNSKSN

Sequence of LRP1 (Q07954 20-4544): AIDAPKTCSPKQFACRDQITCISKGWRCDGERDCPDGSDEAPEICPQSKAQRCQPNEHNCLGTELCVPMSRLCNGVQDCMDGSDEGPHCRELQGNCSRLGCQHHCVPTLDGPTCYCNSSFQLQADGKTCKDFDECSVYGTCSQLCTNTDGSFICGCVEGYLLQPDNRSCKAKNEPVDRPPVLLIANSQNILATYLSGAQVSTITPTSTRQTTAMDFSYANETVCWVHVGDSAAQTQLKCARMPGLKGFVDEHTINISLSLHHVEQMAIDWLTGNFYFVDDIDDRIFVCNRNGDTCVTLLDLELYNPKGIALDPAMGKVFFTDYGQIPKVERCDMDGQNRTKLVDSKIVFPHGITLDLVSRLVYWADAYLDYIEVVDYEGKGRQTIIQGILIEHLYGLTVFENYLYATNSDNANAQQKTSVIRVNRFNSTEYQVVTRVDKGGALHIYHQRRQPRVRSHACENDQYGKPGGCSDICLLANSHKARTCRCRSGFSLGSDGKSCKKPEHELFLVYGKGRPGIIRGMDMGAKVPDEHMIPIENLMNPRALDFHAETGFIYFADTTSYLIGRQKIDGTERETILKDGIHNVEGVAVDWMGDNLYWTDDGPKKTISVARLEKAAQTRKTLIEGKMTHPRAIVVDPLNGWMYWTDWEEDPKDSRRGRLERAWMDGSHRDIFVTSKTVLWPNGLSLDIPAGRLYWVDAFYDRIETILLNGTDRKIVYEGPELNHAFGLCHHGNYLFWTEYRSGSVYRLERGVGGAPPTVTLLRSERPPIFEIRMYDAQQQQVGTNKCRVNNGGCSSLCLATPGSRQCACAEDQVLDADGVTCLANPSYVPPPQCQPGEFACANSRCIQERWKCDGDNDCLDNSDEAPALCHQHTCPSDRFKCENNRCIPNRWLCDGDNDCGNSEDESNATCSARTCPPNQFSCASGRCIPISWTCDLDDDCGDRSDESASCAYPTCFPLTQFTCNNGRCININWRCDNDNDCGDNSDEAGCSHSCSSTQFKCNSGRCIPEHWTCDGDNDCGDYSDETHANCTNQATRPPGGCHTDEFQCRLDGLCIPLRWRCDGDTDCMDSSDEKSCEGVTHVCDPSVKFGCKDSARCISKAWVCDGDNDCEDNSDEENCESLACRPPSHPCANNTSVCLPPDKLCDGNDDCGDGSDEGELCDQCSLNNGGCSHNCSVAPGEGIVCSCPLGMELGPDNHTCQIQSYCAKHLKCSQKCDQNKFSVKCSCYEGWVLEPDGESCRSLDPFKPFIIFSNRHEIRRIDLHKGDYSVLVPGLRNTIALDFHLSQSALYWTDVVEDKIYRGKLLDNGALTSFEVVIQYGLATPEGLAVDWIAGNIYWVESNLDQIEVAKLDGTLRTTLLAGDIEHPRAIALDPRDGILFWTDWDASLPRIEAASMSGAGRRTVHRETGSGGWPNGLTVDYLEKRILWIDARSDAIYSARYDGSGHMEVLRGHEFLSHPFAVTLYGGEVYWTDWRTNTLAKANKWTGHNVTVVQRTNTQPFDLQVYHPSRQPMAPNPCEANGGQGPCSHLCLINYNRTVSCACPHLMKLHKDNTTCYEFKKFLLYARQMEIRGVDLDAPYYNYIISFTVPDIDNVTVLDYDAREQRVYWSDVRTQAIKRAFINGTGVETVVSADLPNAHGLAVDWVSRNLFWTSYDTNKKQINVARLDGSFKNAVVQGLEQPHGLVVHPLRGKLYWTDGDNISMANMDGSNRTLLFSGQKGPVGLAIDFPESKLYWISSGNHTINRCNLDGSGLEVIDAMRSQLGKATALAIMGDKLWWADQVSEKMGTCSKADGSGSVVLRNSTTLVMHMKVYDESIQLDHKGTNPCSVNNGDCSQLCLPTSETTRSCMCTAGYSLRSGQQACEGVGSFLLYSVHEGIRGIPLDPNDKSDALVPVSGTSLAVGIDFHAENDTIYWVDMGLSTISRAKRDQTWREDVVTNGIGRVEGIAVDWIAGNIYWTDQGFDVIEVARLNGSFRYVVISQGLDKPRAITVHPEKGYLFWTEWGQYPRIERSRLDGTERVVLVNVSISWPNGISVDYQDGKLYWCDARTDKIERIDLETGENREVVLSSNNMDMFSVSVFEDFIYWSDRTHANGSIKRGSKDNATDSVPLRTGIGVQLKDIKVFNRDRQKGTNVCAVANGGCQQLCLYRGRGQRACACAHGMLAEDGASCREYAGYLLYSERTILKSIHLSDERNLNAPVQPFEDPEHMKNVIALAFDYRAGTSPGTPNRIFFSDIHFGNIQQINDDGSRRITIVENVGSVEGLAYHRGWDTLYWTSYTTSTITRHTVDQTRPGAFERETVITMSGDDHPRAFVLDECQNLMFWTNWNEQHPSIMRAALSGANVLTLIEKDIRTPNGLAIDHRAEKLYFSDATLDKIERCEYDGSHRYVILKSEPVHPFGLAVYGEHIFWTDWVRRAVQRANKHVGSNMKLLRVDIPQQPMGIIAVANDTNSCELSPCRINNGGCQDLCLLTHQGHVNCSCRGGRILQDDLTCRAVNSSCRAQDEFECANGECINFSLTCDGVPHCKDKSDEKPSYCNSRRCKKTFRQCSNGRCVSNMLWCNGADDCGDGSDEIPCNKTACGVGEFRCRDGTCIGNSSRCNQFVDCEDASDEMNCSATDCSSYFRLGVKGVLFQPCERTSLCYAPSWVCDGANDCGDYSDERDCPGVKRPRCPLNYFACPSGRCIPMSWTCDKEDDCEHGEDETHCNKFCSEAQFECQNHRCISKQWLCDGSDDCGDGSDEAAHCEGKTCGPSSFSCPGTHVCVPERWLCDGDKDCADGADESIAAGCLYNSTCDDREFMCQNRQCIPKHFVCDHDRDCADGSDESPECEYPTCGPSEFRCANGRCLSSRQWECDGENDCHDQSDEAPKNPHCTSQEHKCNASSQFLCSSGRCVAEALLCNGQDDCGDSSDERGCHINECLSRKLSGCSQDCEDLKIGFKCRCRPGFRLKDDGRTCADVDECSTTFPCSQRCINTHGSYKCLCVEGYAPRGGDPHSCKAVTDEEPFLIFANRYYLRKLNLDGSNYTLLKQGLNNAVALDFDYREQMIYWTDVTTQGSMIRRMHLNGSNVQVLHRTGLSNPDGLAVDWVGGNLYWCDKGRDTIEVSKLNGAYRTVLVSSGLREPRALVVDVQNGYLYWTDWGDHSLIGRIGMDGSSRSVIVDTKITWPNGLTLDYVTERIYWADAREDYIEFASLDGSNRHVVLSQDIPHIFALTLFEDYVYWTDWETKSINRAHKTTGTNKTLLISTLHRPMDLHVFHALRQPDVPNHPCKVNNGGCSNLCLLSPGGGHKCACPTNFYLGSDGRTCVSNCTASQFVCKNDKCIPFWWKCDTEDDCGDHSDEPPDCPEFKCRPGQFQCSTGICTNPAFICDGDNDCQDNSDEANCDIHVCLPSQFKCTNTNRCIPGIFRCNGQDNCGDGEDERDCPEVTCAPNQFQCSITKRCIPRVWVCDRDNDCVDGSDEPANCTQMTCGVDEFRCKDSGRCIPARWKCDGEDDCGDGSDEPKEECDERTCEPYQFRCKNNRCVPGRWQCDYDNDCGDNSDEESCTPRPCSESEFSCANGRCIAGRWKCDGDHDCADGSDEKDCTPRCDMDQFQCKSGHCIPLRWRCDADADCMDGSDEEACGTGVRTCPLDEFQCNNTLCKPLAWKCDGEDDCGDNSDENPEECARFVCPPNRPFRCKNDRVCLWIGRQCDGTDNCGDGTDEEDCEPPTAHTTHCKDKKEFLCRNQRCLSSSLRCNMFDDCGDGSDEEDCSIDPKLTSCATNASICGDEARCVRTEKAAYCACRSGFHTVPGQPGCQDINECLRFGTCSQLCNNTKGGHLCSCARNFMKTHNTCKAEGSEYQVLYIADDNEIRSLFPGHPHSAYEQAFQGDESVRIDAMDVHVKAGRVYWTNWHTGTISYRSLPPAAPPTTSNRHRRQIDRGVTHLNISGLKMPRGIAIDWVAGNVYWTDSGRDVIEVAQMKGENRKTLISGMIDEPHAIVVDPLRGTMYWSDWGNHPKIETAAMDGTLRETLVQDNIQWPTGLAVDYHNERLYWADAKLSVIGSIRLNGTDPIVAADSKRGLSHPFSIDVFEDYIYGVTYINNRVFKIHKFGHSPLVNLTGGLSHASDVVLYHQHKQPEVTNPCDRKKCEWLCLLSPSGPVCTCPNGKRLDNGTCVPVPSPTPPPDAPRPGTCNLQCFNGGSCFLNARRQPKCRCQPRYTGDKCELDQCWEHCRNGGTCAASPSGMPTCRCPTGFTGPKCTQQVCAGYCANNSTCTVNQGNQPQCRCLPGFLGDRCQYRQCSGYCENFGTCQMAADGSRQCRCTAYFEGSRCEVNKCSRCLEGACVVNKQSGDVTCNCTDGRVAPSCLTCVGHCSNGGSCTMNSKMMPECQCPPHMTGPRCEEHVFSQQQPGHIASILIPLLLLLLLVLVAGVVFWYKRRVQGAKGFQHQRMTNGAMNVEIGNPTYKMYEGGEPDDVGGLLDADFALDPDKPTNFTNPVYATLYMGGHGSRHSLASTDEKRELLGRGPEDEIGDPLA

Row | Substance | Kd (amyloid-β (Homo sapiens)) [nM] | Kd [1] [nM]
1 | LRP1 (from UniProt Q07954) | 0.57 | –
2 | recombinant human APOE2 (from UniProt P02649 19-317) (natural protein) | – | 117
3 | recombinant human APOE4 (from UniProt P02649 19-317) (natural protein) | – | 114
